Conditions in all cases: 20 nM; 72 h
Data set [1] relates to MCF10A. Briefly: percent viability (nuclei count relative to siNT); higher = more viable cells. The method, then: (§1)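 After 72 h, cells were fixed and stained with Hoechst and anti-fibrillarin, and nucleoli per nucleus were counted with CellProfiler. Values are plate-adjusted percent effect for the one-nucleolus and 5+ nucleoli phenotypes, normalised to siNT (0%) and to the positive controls siNOL11 or siKIF11 (100%), as the mean of biological triplicates. Percent viability is the nuclei count relative to siNT.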

Data set [2] concerns MCF10A. Briefly: 5+ nucleoli phenotype percent effect (relative to siNT 0% and siKIF11 100%); higher = more cells with five or more nucleoli. The method, then: as §1
The test system of data set [3] is MCF10A. Briefly: one-nucleolus phenotype percent effect (relative to siNT 0% and siNOL11 100%); higher = more cells with one nucleolus (ribosome biogenesis inhibition). Here is the method: as §1

Here are results for 36 sequences from the supplement of paper PMC10899765.

As for AAUAAUAUCACAGUAGGUGUAC [hsa-miR-5692c], the percent viability with MCF10A [1] is 133%. Also, the “5+ nucleoli phenotype percent effect” value in the data set with MCF10A [2] is 46%. For the same sequence, the “one-nucleolus phenotype percent effect” value in the data set with MCF10A [3] was -21.3%.
As to AAUAGCUCAGAAUGUCAGUUCUG [hsa-miR-7705], the percent viability with MCF10A [1] was determined as 71.2%. In addition, the “5+ nucleoli phenotype percent effect” value with MCF10A [2] was -21.4%. Further, the “one-nucleolus phenotype percent effect” value with MCF10A [3] worked out at 2.1%.
As to “AAUAGGCCACGGAUCUGGGCAA [hsa-miR-1295b-3p]”, the percent viability with MCF10A [1] was found to be 13.8%. Moreover, the “5+ nucleoli phenotype percent effect” value in the data set on MCF10A [2] is 4.51%. Moreover, the “one-nucleolus phenotype percent effect” value in the data set with MCF10A [3] was found to be 28.6%.
As to AAUAUAACACAGAUGGCCUGU [hsa-miR-410], in the data set with MCF10A [1], the percent viability was 164%. Moreover, the “5+ nucleoli phenotype percent effect” value in the data set with MCF10A [2] came out at 27.3%. In addition, the “one-nucleolus phenotype percent effect” value with MCF10A [3] was -9.74%.
For AAUAUUAUACAGUCAACCUCU [hsa-miR-656], in the data set with MCF10A [1], the percent viability was 66.6%. In the data set with MCF10A [2], the “5+ nucleoli phenotype percent effect” value was 6.28%. In addition, the “one-nucleolus phenotype percent effect” value with MCF10A [3] came to 3.93%.
As to AAUCACUAACCACACGGCCAGG [hsa-miR-34c-3p], in the data set with MCF10A [1], the percent viability was found to be 70.3%. Moreover, in the data set with MCF10A [2], the “5+ nucleoli phenotype percent effect” value is 13.7%. Moreover, the “one-nucleolus phenotype percent effect” value with MCF10A [3] is -3.51%.
In the case of AAUCAGUGAAUGCCUUGAACCU [hsa-miR-5094], the percent viability with MCF10A [1] stood at 63.5%. Further, the “5+ nucleoli phenotype percent effect” value in the data set on MCF10A [2] is -13.9%. The “one-nucleolus phenotype percent effect” value in the data set with MCF10A [3] was -15%.
As for AAUCAUACACGGUUGACCUAUU [hsa-miR-154-3p], in the data set with MCF10A [1], the percent viability was 67.2%. The “5+ nucleoli phenotype percent effect” value in the data set on MCF10A [2] is -5.26%. For the same sequence, the “one-nucleolus phenotype percent effect” value in the data set on MCF10A [3] is -0.992%.
On to AAUCAUACAGGGACAUCCAGUU [hsa-miR-487a], for which, in the data set on MCF10A [1], the percent viability came to 56%. Besides, in the data set with MCF10A [2], the “5+ nucleoli phenotype percent effect” value was -7.13%. In the data set on MCF10A [3], the “one-nucleolus phenotype percent effect” value is -6.53%.
On the same counts, the results for AAUCAUGUGCAGUGCCAAUAUG [hsa-miR-96-3p] are 28.5%, 24.5% and 1.6%.
Consider AAUCAUUCACGGACAACACUU [hsa-miR-382-3p], for which the percent viability with MCF10A [1] amounted to 97.5%. The “5+ nucleoli phenotype percent effect” value with MCF10A [2] was 36.3%. Moreover, the “one-nucleolus phenotype percent effect” value in the data set on MCF10A [3] was -25.4%.
Consider AAUCCACGCUGAGCUUGGCAUC [hsa-miR-5092], for which, in the data set on MCF10A [1], the percent viability was 22.3%. Also, the “5+ nucleoli phenotype percent effect” value in the data set on MCF10A [2] is -4.16%. In addition, the “one-nucleolus phenotype percent effect” value in the data set with MCF10A [3] is 14.7%.
With “AAUCCCAAUGCUAGACCCGGUG [hsa-miR-4733-5p]”, the percent viability with MCF10A [1] was 19.5%. The “5+ nucleoli phenotype percent effect” value with MCF10A [2] came out at 2.55%. For the same sequence, the “one-nucleolus phenotype percent effect” value in the data set on MCF10A [3] is 2.5%.
On the same counts, the results for AAUCCUUGCUACCUGGGU [hsa-miR-500b] are 32.3%, 12.8% and -0.735%.
As to “AAUCCUUGGAACCUAGGUGUGAGU [hsa-miR-362-5p]”, in the data set on MCF10A [1], the percent viability was determined as 36.6%. Further, in the data set with MCF10A [2], the “5+ nucleoli phenotype percent effect” value was -6.28%. In addition, in the data set with MCF10A [3], the “one-nucleolus phenotype percent effect” value was -1.23%.
For the sequence AAUCCUUUGUCCCUGGGUGAGA [hsa-miR-501-5p], in the data set on MCF10A [1], the percent viability was 33.2%. Further, the “5+ nucleoli phenotype percent effect” value in the data set on MCF10A [2] is -22.9%. In addition, in the data set on MCF10A [3], the “one-nucleolus phenotype percent effect” value was found to be 22.1%.
The corresponding values for AAUCGGACCCAUUUAAACCGGAG [hsa-miR-5188] are 90.7%, 10.2% and -9.59%.
The corresponding values for AAUCGUACAGGGUCAUCCACUU [hsa-miR-487b] are 59.9%, 24.3% and -10.7%.
The corresponding values for “AAUCUGAGAAGGCGCACAAGGU [hsa-miR-3200-5p]” are 32.7%, -28.4% and 2.91%.
On to “AAUGACACGAUCACUCCCGUUGA [hsa-miR-425-5p]”, for which, in the data set with MCF10A [1], the percent viability was found to be 74.9%. Besides, the “5+ nucleoli phenotype percent effect” value in the data set on MCF10A [2] was determined as 16.6%. Further, in the data set on MCF10A [3], the “one-nucleolus phenotype percent effect” value was -5.83%.
For AAUGAGAGACCUGUACUGUAU [hsa-miR-4712-3p], the percent viability in the data set with MCF10A [1] worked out at 7.13%. The “5+ nucleoli phenotype percent effect” value in the data set with MCF10A [2] was -22.6%. In addition, in the data set on MCF10A [3], the “one-nucleolus phenotype percent effect” value amounted to 34.8%.
On to AAUGCACCCGGGCAAGGAUUCU [hsa-miR-501-3p], for which the percent viability with MCF10A [1] worked out at 48.2%. In the data set with MCF10A [2], the “5+ nucleoli phenotype percent effect” value was -14.1%. Also, in the data set on MCF10A [3], the “one-nucleolus phenotype percent effect” value came out at 10.8%.
For the sequence AAUGCACCUGGGCAAGGAUUCA [hsa-miR-502-3p], the percent viability with MCF10A [1] is 38.5%. Moreover, the “5+ nucleoli phenotype percent effect” value in the data set on MCF10A [2] was -10.4%. Also, the “one-nucleolus phenotype percent effect” value in the data set on MCF10A [3] was 0.707%.
As for AAUGGAUUUUUGGAGCAGG [hsa-miR-1246], in the data set with MCF10A [1], the percent viability was 33%. In the data set on MCF10A [2], the “5+ nucleoli phenotype percent effect” value is -4.08%. The “one-nucleolus phenotype percent effect” value with MCF10A [3] is 3.6%.
On the same counts, the results for AAUGGCGCCACUAGGGUUGUG [hsa-miR-652-3p] are 58.1%, 4.15% and 7.39%.
In the case of AAUGGCUGUCCGUAGUAUGGUC [hsa-miR-889-5p], the percent viability with MCF10A [1] is 24.5%. In addition, the “5+ nucleoli phenotype percent effect” value in the data set with MCF10A [2] is -28.6%. Moreover, in the data set on MCF10A [3], the “one-nucleolus phenotype percent effect” value turned out to be 43.3%.
In the case of AAUGUAAACAGGCUUUUUGCU [hsa-miR-4495], the percent viability with MCF10A [1] is 68.8%. The “5+ nucleoli phenotype percent effect” value in the data set with MCF10A [2] stood at 29.4%. Further, the “one-nucleolus phenotype percent effect” value with MCF10A [3] came out at 2.68%.
As for AAUGUAGAGAUUGAUCAAAAU [hsa-miR-3668], the percent viability in the data set on MCF10A [1] was found to be 86.3%. Besides, the “5+ nucleoli phenotype percent effect” value with MCF10A [2] came out at 0.392%. Moreover, the “one-nucleolus phenotype percent effect” value in the data set with MCF10A [3] was 2.57%.
The corresponding values for AAUGUGGAAGUGGUCUGAGGCAU [hsa-miR-4657] are 30.7%, 6.84% and 10.1%.
As to AAUGUGGACUGGUGUGACCAAA [hsa-miR-4491], in the data set with MCF10A [1], the percent viability came out at 45.4%. Besides, the “5+ nucleoli phenotype percent effect” value in the data set with MCF10A [2] came out at 20.6%. For the same sequence, the “one-nucleolus phenotype percent effect” value in the data set on MCF10A [3] is -0.704%.
As for AAUGUGUAGCAAAAGACAGA [hsa-miR-511-3p], in the data set on MCF10A [1], the percent viability turned out to be 18.7%. Moreover, the “5+ nucleoli phenotype percent effect” value with MCF10A [2] is -40.6%. In addition, the “one-nucleolus phenotype percent effect” value in the data set on MCF10A [3] was determined as 55.2%.
In the case of “AAUGUUGGAAUCCUCGCUAGAG [hsa-miR-4781-3p]”, the percent viability in the data set with MCF10A [1] was determined as 34.3%. Further, in the data set with MCF10A [2], the “5+ nucleoli phenotype percent effect” value turned out to be 12.4%. In the data set on MCF10A [3], the “one-nucleolus phenotype percent effect” value is -0.0524%.
Regarding AAUGUUUUUUCCUGUUUCC [hsa-miR-4307], the percent viability with MCF10A [1] is 63.9%. In the data set with MCF10A [2], the “5+ nucleoli phenotype percent effect” value stood at 3.12%. Also, in the data set on MCF10A [3], the “one-nucleolus phenotype percent effect” value was -12.3%.
Turning to AAUUCCCUUGUAGAUAACCCGG [hsa-miR-3938], in the data set with MCF10A [1], the percent viability came to 129%. Also, in the data set with MCF10A [2], the “5+ nucleoli phenotype percent effect” value is 51.2%. Further, in the data set with MCF10A [3], the “one-nucleolus phenotype percent effect” value was -32%.
The corresponding values for “AAUUCUGUAAAGGAAGAAGAGG [hsa-miR-4778-5p]” are 74.3%, 32.3% and -8.03%.
The corresponding values for AAUUGCACGGUAUCCAUCUGUA [hsa-miR-363-3p] are 63.9%, -15.8% and 5.76%.
